Bounds are passed on as bounds.

The target in experiment [1] is Respiratory Syncytial Virus fusion glycoprotein (RSV F) on RSV-A2 virus (Respiratory Syncytial Virus subtype A (RSV-A2)). Kind of experiment: cell-based or functional assay.
In experiment [2] the target is RSV prefusion F (preF), DS-Cav1 (Respiratory Syncytial Virus). Briefly: BLI, IgG on anti-human IgG sensor, 100 nM antigen.
For experiment [3], the target named is RSV postfusion F (postF), F deltaFP (Respiratory Syncytial Virus). Briefly: BLI, IgG on anti-human IgG sensor, 100 nM antigen.

B1: ADI-41196 (antibody, V domains shown)
VH: EVQLVESGGGLVQPGGSLRLSCIVSGFPFNTYAMSWVRQAPGKGLEWVSVVSASGGNTDYADSVKGRFTISRDNSKKTLYLQMNSLRAEDTAVYYCARTESNTLAPSWSGRYVTDWYFDLWGRGTLVTVSS
VL: EIVMTQSPSSLSASVGDRVTITCRASQSISSFLNWYQQKPGKAPKLLISAASSLQSGVPSRFSGSGSGTDFTLTISSLQPEDFATYYCQQSYSIPTFGQGTRLEIK
Molecule B1 returned a Neutralization IC50 (RSV subtype A) in experiment [1] of more than 25 µg/mL. Further, the Kd worked out at 2.92 nM in experiment [2] and 0.595 nM in experiment [3].

B2: ADI-41225 (antibody, V domains shown)
VH: EVQLVESGGGLVKPGGSLRLSCAASGFSLSDYYMTWLRQAPGKGLEWVSSIGTTSTYTNYAESVKDRFTISRDNAKNSLYLQMNSLRAEDTAVYYCARDWGFGVERGYFDLWGRGTLVTVSS
VL: DIVLTQTPSTLSASVGDRVTITCRASQSISFWLAWYQQKPGKAPKLLIYKASTLESGVPSRFSGRGSGTDFTLTISSLQPDDFATYYCQQYNTYTWTFGQGTKVEIK
In experiment [1], B2 came in with a Neutralization IC50 (RSV subtype A) of more than 25 µg/mL. For the same molecule, the Kd stood at 4.15 nM in experiment [2] and 0.733 nM in experiment [3].

B3: ADI-41207 (antibody, V domains shown)
VH: QVQLVQSGPALVKPTQTLTLTCTFSGFSLSTKGMCVSWIRQPPGKALEWLALIDWDDDKFYSTSLKTRLTISKDTSKNQVVLTMTNMDPVDTATYYCARTLYFYGSGSLSDYCFDYWGQGTPVTVSS
VL: QPVLTQPRSVSGSPGQSVTISCTGTSRDVGNYNFVSWYQQHPGKAPKLIIYDVTKRPSGVPDRFSGSKSGNTASLTISGLQAEDEADYYCCSYAGTYTWVFGGGTKVTVL
Consider B3, for which, in experiment [1], the Neutralization IC50 (RSV subtype A) was more than 25 µg/mL. Also, the results for the equilibrium dissociation constant (Kd) in experiment [2] and in experiment [3] were 2.53 nM and 0.438 nM, respectively.

B4: ADI-41214 (antibody, V domains shown)
VH: EVQLVESGGGLVQPGGSLRLSCAASGFTFSSYWMSWVRQAPGKGLEWVATIKQDGSEKYSVDSVKGRFTISRDNPKKSLYLQMNSLRAEDTAVYYCARDYRVEYYHSSDKLKRYYYYGMDVWGQGTTVTVSS
VL: DIRVTQSPSSLSASVGDRVTITCRASQSISTYLNWYQQKPGKAPKFLIYAASSLESGVPSRFSGSGSGTDFSLTISSLQPEDFATYYCQQSYSIPITFGQGTRLEIK
Regarding B4, the Neutralization IC50 (RSV subtype A) in experiment [1] is more than 25 µg/mL. Further, the Kd in experiment [2] was determined as 5.7 nM; in experiment [3] it was 1.02 nM.

B5: ADI-41224 (antibody, V domains shown)
VH: EVQLVETGGGLVQPGRSLRLSCTASGFTFGDYAMNWVRQAPGKGLEWIGIIRTKTYGGTTEYAASVKGRFTISRDDSKGIAYLQMNSLKTEDTGVYYCTMPVLNMDVWGQGTTVTVSS
VL: QPVLTQPHSVSESPGKTVTISCTRNIGNIASNYVQWYQQRPGSSPTTVIYEDNQRPSGVPDRFSGSIDISSNSASLTISGLKTEDEADYYCQSYDSNNPWVFGGGTQLTVL
B5: the Neutralization IC50 (RSV subtype A) in experiment [1] is 0.13 µg/mL. Also, the Kd in experiment [2] turned out to be 0.524 nM; in experiment [3] it was 0.558 nM.

B6: ADI-41197 (antibody, V domains shown)
VH: QVQLVQSGAEVKKPGASVKVSCKASGYTFSGYYMHWVRQAPGQGLEWVGRINPKSGDTVYAQKFQGRVTMTRDTSISTAYMELSRLISDDTAKYYCARQEDHYYGSGNFYNSFDFWGQGTLVTVSS
VL: ETTLTQSPSSLSASVGDRVTITCRASQSISSNLNWYQQKPGKAPKLLIYGASTLQSGVPSRFSGSGSGTDFTLTISSLQPEDLATYYCQQSYSNPGKTFGQGTKVDIK
Consider B6, for which, in experiment [1], the Neutralization IC50 (RSV subtype A) amounted to 0.27 µg/mL. For the same molecule, the Kd was found to be 0.795 nM in experiment [2] and 0.531 nM in experiment [3].

B7: ADI-41200 (antibody, V domains shown)
VH: EVQLLESGGGLVKPGGSLRLSCAASGLTFSDHDMSWVRQAPGKGLEWVSGIGGSGSNTYYAGSVKGRFTISRDNSKNTLYLQMDSLRVEDTAVYYCAKDPYGDYRDYYGMDVWGQGTTVTVSS
VL: DIVLTQTPFSLPVTPGEPASISCRSSQSLLKSNGYNYLDWFLQKPGQSPQLLIYLGSNRASGVPDRFSGSGSGTDFTLKISRVEAEDVGVYYCMQTLQALYTFGQGTKVEIK
Regarding B7, the Neutralization IC50 (RSV subtype A) in experiment [1] is more than 25 µg/mL. For the same molecule, the values for the equilibrium dissociation constant (Kd) in experiment [2] and in experiment [3] were 0.334 nM and 0.318 nM, respectively.

B8: ADI-41202 (antibody, V domains shown)
VH: QVQLVESGAEVKKPGSSVKISCKASGGTFSSHPISWVRQAPGQGLEWMGRIVPIFGIANYAQKFQGRVTMIADKSTNTAYMELSNLRSEDTAVYYCASPVYDSSGFQWGQGTLVTVSS
VL: QSALIQPRSVSGSPGQSVTISCTGTSGDGGFYNYVSWYQQHPGKTPKLMIYDVDQRPSGVPDRFSGSKSGNTASLTISGLQAEDEADYYCCSYPGNPLYVFGTGTKLTVL
Turning to B8, the Neutralization IC50 (RSV subtype A) in experiment [1] is more than 25 µg/mL. Moreover, the equilibrium dissociation constant (Kd) came out at 1.12 nM in experiment [2] and 0.333 nM in experiment [3].

B9: ADI-41190 (antibody, V domains shown)
VH: QVQLVQSGAEVKKPGASVKVSCKAFGYTFRSYDMQWVRQAPGQRLEWMGWINAVNGDTKYSQKFQGRVTITRDTSATTVYMELSSLRSEDTAVYYCARWGRFWNSRSLDYYAMDVWGQGTTVTVSS
VL: DIVMTQSPGTLSLSPGERATLSCRASQSISSSYLVWYQHKPGQAPRLLIYGASTRATDIPDRFSGSGSGTDFTLTISRLEPEDFAVYYCQQYGSSPLTFGQGTRLEIK
As to B9, in experiment [1], the Neutralization IC50 (RSV subtype A) is more than 25 µg/mL. In addition, the results for the Kd in experiment [2] and in experiment [3] were 2.29 nM and 0.971 nM, respectively.

B10: ADI-41213 (antibody, V domains shown)
VH: EVQLVESGGGLIQPGGSLRLSCAASGFTVSSNYMSWVRQAAGKGLEWVSLIYSGDSTYYADSVKGRFTISRDNSQNTLYLQMNSLRAEDTAVYYCARDASPNVGYYGMDVWGQGTTVTVSS
VL: DIVLTQPPSVSVSPGQTASITCSGGKLGDTYACWYQQKPGQSPVLVIYQDSKRPSGIPERFSGSNSGNTATLTISGTQAMDEADYYCQAWDSSTARYVFGTGTKVTVL
On to B10, for which the Neutralization IC50 (RSV subtype A) in experiment [1] is more than 25 µg/mL. For the same molecule, the Kd stood at 3.47 nM in experiment [2] and 0.577 nM in experiment [3].

B11: ADI-41201 (antibody, V domains shown)
VH: EVQLLESGGGLVQPGGSLRLSCAASGFAFDIYSMNWVRQAPGKGLEWLSYISSRGETIYYADSVKGRFTISRDNARNSLYLQMNGLRDEDTATYYCYYYGSGISSHGGAFDYWGQGTLVTVSS
VL: DIVMTQTPATLSLSPGERATLTSRASQSVSSFLAWYQQKPGQAPRLLIYDVSNRATGVPARFSGSGSGTDFTLTISSLEPEDIAVYYCQQRNTWPAITFGQGTKVEIK
On to B11, for which the Neutralization IC50 (RSV subtype A) in experiment [1] is more than 25 µg/mL. Also, the results for the Kd in experiment [2] and in experiment [3] were 3.82 nM and 0.637 nM, respectively.

B12: ADI-41205 (antibody, V domains shown)
VH: QVQLQESGPGLVKPSGTLSLTCAVSGGSISSTNWWSWVRQPPGKGLEWIGEIYHSGSTNYNPSLKSRVTISVDKSNNQFSLNLSSVTAADTAVYYCARGVITYRGSWFLQYFDYWGQGTLVTVSS
VL: DIRVTQSPDSLAVSLGERATINCKSSQSLFYSSNNQNYLAWYQQKPGQPPKLLIYWASTRQSGVPHRFSGSGSGTDFTLTISSLQAEDVAVYYCQQYYSSPLTFGGGTKVEIK
With B12, the Neutralization IC50 (RSV subtype A) in experiment [1] is more than 25 µg/mL. Moreover, the equilibrium dissociation constant (Kd) was 1.16 nM in experiment [2] and 0.536 nM in experiment [3].

B13: ADI-41215 (antibody, V domains shown)
VH: QVQLVESGGGVVRPGGSLRLSCAASGFTFDDYGMSWVRQAPGKGLEWVSGINWSGGSTDYADSVKGRFTISRDNAKNSLYLQMNSLRAEDTALYYCAKEGQEWELLPWYFDLWGRGTLVTVSS
VL: QPVLTQPASVSGSPGQSITIPCTGTSSDVGIYNLVSWYQQHPGKAPKLMIYDVSKRPSGVSNRFSGSKSGNTASLTISGLQAEDEADYYCCSYAGGSTYVFGTGTKLTVL
For B13, in experiment [1], the Neutralization IC50 (RSV subtype A) came out at 0.32 µg/mL. Further, the dissociation constant (Kd) in experiment [2] was found to be 0.437 nM; in experiment [3], 0.563 nM.

B14: ADI-41230 (antibody, V domains shown)
VH: QVQLVQSGAEVKKPGESLKISCKASGYSFTSHYWIGWVRQMPGKGLEWMGFIFPGDSDTRYSPSLQGQVTISADKSTNTAYLQWNSLKASDTAMYYCARLEYLVSGFEYWGQGTLVTVSS
VL: QPGLTQPHSVSESPGKTVTISCTRSSGSIASNYVHWYQQRPGSFPTTVIYEDNQRPSGVPDRFSGSIDSSSNSASLTISGLRTEDEADYYCQSYDSSNPVVFGGGTKVTVL
Molecule B14 came in with a Neutralization IC50 (RSV subtype A) in experiment [1] of 24.1 µg/mL. Moreover, the dissociation constant Kd was found to be 1.83 nM in experiment [2] and 0.407 nM in experiment [3].

B15: ADI-41212 (antibody, V domains shown)
VH: EVQLLESGAEVKKPGASVKVSCKASGYTFTDYYIHWVRQAPGQGLEWMGRINPKNGDAIYAQNFQGRVTMTRDTSISTAYMEVSRLTSDDTAVYYCARDQMWLVLDYWGQGTLVTVSS
VL: QSALTQPASVSGSPGQSITISCTGTSSDVGGYDYVSWYQQHPGKAPKLMIHDVTNRPSGISHRFSGSKSGNTASLTISGLQAGDEADYYCSSYTRSNTKVFGTGTKVTVL
B15 yielded a Neutralization IC50 (RSV subtype A) in experiment [1] of more than 25 µg/mL. In addition, the Kd in experiment [2] was found to be 3.18 nM; in experiment [3] it was 0.4 nM.

B16: ADI-41228 (antibody, V domains shown)
VH: EVQLLESGPGLVKPSETLSLTCTVSGGSISSYQWNWIRQPPGKGLEWLGYVYYSGSTNYNPSLKSRVTLSVDTSKNQFSLKLSSVTAADTAVYYCARDRRDGSFVFDYWGQGTLVTVSS
VL: QSVLIQPASVSGSPGQSITISCTGTSSDVGGYNYVSWYQQHPGKAPKLMIYDVSNRPSGISNRFSGSKSGNTASLTISGLQAEDEADYYCSSYTSSTTLVFGTGTKVTVL
In turn, B16 registered a Neutralization IC50 (RSV subtype A) in experiment [1] of more than 25 µg/mL. Moreover, the Kd in experiment [2] came to 4.86 nM; in experiment [3] it was 0.618 nM.

B17: ADI-41189 (antibody, V domains shown)
VH: QVQLVESGGGLVKPGGSLRLSCAASGFTFSSYSMNWVRQAPGKGLEWVSSMSSSSGYIDYADSVKGRFTISRDNAKNSLYLQMNSLRVEDTAVYYCARRNAVVVPSLMVVADYYYGMDVWGQGTTVTVSS
VL: QSVLTQPPSVSGAPGQRVTISCTGSSSNIGAGYDVHWYQQLPGTAPKLLIYGNSNRPSGVPDRFSGSKSGTSASLAITGLQAEDEADYYCQSYDTSLSGPGYVFGTGTKLTVL
Consider B17, for which the Neutralization IC50 (RSV subtype A) in experiment [1] was more than 25 µg/mL. Also, the results for the Kd in experiment [2] and in experiment [3] were 2.86 nM and 0.608 nM, respectively.

Source of the values: patent US20260258115A1.
